Data reported in patent US20260374838 (published 2026).
Read-outs that look alike come from different tables or passages of the source.

T1: murine CD200R1 (mouse, UniProt Q9ES57)
T1 chain: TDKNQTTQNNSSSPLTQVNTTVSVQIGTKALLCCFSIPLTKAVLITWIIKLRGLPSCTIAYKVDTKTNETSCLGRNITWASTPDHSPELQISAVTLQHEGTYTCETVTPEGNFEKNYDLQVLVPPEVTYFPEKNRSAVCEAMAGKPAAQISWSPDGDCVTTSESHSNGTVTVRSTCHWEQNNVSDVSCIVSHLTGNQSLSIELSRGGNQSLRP

T2: human CD200R (human, UniProt Q8TD46)
T2 chain: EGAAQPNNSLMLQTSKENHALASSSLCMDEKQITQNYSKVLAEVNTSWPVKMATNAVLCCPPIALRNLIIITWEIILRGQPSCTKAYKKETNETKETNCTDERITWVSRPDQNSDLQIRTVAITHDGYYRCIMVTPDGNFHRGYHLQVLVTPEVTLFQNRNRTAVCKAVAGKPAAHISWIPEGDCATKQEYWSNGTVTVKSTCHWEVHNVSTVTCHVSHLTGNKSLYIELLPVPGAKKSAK

T3: human CD200R1L (human, UniProt Q6Q8B3)
T3 chain: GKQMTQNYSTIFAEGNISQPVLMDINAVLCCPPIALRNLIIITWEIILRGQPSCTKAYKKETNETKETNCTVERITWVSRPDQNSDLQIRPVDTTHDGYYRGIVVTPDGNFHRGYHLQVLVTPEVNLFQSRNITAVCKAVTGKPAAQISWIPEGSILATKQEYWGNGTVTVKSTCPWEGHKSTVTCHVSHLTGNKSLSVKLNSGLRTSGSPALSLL


Experiments:
murine CD200R1 [1] = target: T1, murine CD200R1; assay: SPR
human CD200R [2] = target: T2, human CD200R; assay: SPR, 25C
human CD200R [3] = target: T2, human CD200R; assay: SPR, 25C
human CD200R1L = target: T3, human CD200R1L; assay: SPR, 25C
murine CD200R1 [4] = target: T1, murine CD200R1; assay: SPR, 25C

Row | Binder | Kd (murine CD200R1 [1]) [nM] | binding result (human CD200R1L) | binding result (murine CD200R1 [4]) | Kd (human CD200R [2]) [nM] | Kd (human CD200R [3]) [nM]
1 | DS-118 (antibody) QVQVVTQDEREQLYTPASLKCSLQNAQEALIVTWQKKKAVSPENMVTFSENHGVVIQPAYKDKINITQLGLQNSTITFWNITLEDEGCYMCLFNTFGFGYYSGTACLTVYVQPIVSLHYKFSEDHLNITCSATARPAPMVFWKVPRSGIENSTVTLSHPNGTTSVTSILHIKDPKNQVGKEVICQVLHLGTVTDFKQTVNKGPPCPPCPAPEFLGGPSVFLFPPKPKDTLMISRTPEVTCVVVDVSQEDPEVQFNWYVDGVEVHNAKTKPREEQFNSTYRVVSVLTVLHQDWLNGKEYKCKVSNKGLPSSIEKTISKAKGQPREPQVYTLPPSQEEMTKNQVSLTCLVKGFYPSDIAVEWESNGQPENNYKTTPPVLDSDGSFFLYSRLTVDKSRWQEGNVFSCSVMHEALHNHYTQKSLSLSLGK |  | no binding | no binding | 1.3 | 1.3
2 | DS-20 (antibody, wild-type CD200 ectodomain fused to human IgG1 Fc (dimer); UniProt numbering) QVQVVTQDEREQLYTPASLKCSLQNAQEALIVTWQKKKAVSPENMVTFSENHGVVIQPAYKDKINITQLGLQNSTITFWNITLEDEGCYMCLFNTFGFGKISGTACLTVYVQPIVSLHYKFSEDHLNITCSATARPAPMVFWKVPRSGIENSTVTLSHPNGTTSVTSILHIKDPKNQVGKEVICQVLHLGTVTDFKQTVNKG |  | no binding | no binding | 111 | 
3 | DS-155 (antibody, wild-type CD200 ectodomain fused to human IgG4 S228P Fc (dimer); UniProt numbering) QVQVVTQDEREQLYTPASLKCSLQNAQEALIVTWQKKKAVSPENMVTFSENHGVVIQPAYKDKINITQLGLQNSTITFWNITLEDEGCYMCLFNTFGFGKISGTACLTVYVQPIVSLHYKFSEDHLNITCSATARPAPMVFWKVPRSGIENSTVTLSHPNGTTSVTSILHIKDPKNQVGKEVICQVLHLGTVTDFKQTVNKG |  | no binding | no binding | 179 | 179

Continued, in another order:

Row | Kd (murine CD200R1 [1]) [nM] | binding result (human CD200R1L) | binding result (murine CD200R1 [4]) | Binder | Kd (human CD200R [2]) [nM] | Kd (human CD200R [3]) [nM]
4 | 43.3 |  |  | DS-227 (protein) QVEVVTQDERKALHTTASLRCSLKTSQEPLIVTWQKKKAVSPENMVTYSKTYGVVIQPAYKDRINVTELGLWNSSITFWNTTLEDEGCYMCLFNIFGSQKVSGTACLTLYVQPIVHLHYNYFEDHLNITCSATARPAPAISWKGTGTGIENSTESHFHSNGTTSVTSILRVKDPKTQVGKEVICQVLYLGNVIDYKQSLDKG |  | 
5 | 584 |  |  | DS-198 (protein, wild-type murine CD200 fused to murine IgG2a Fc) QVEVVTQDERKALHTTASLRCSLKTSQEPLIVTWQKKKAVSPENMVTYSKTHGVVIQPAYKDRINVTELGLWNSSITFWNTTLEDEGCYMCLFNTFGSQKVSGTACLTLYVQPIVHLHYNYFEDHLNITCSATARPAPAISWKGTGTGIENSTESHFHSNGTTSVTSILRVKDPKTQVGKEVICQVLYLGNVIDYKQSLDKG |  | 
